This is an account of results in patent US7732568B2, “Methods for preventing and treating Alzheimer's disease” (AFFIRIS Forschungs-und Entwicklungs GmbH, priority 2003, dated 2010).

For orientation: IC50 means the concentration needed to halve the response being measured. A low value points to inhibition by little substance.

The subject of experiment [1] is biotinylated DAEFRH-specific mAb. Briefly: ELISA with peptide libraries: detection of mimotopes by the DAEFRH-specific mAb. The class given is binding, mice. The following applies: mimotopes from peptide libraries 1, 2 and 3. The protocol: The ELISA with each of the peptide libraries have been carried out following standard protocols:
The peptide library is dissolved in 100% DMSO (final concentration 10 mg/ml).
The peptide solution is further diluted in PBS.
The peptide mixture is coated overnight (4° C.) onto ELISA plates (Nunc Maxisorp, Germany), starting with 500 μg/well, and titrated to 100 ng/well.
The plates are washed 3× times with PBS/Tween 20 (0.1% v/v).
The plates are blocked with PBS/BSA (2 h at room temperature).
The plates are washed 3× times with PBS/Tween.
The plates are incubated with biotinylated DAEFRH-specific mAb (DAEFRH sequence disclosed as SEQ ID NO: 1) (10 μg/ml in PBS) for 4 h at room temperature.
The plates are incubated with streptavidin-horseradish-peroxidase (30 min at room temperature).
The plates are washed 5× times with PBS/Tween.
The plates are incubated with ABTS+H2O2 (0.1% w/v; 10 to 45 min) and the reaction is stopped with citric acid followed by photometric evaluation (wavelength 405 nm).
A general note: An ELISA detects its analyte on a solid surface through an enzyme-linked reagent.

Experiment [2] deals with DAEFRH-specific monoclonal antibody (mAb) produced according to example 1. Nature of the experiment: competition ELISA: soluble peptide vs plate-bound DAEFRH-C-BSA for biotinylated mAb, FIG. 4.
The target is the same in experiment [3]. Briefly: competition ELISA: soluble peptide vs plate-bound DAEFRH-C-BSA for biotinylated mAb, FIG. 3.
For experiment [4] the target is unchanged. Briefly: competition ELISA: soluble peptide vs plate-bound DAEFRH-C-BSA for biotinylated mAb, FIG. 5.
The target is the same in experiment [5]. Briefly: competition ELISA: soluble peptide vs plate-bound DAEFRH-C-BSA for biotinylated mAb, FIG. 2.

On to EVDYHR, for which, in experiment [1], the “detection by the monoclonal antibody produced according to example 1” value is on record as “can be detected”.
Molecule SWEFRTC [Peptide 4002 SWEFRT] gave an IC50 in experiment [2] of less than 0.4 µg/mL.
Take SFEFRGC [Peptide 3009 SFEFRG]: the IC50 in experiment [3] is less than 5 µg/mL.
DKELKIC [Peptide 1236 DKELKI] returned an IC50 in experiment [4] greater than 5 µg/mL.
In turn, DRELKIC [Peptide 1237 DRELKI] came in with an IC50 in experiment [4] greater than 5 µg/mL.
In the case of YAEFRGC [Peptide 3005 YAEFRG], in experiment [5], the IC50 is greater than 0.5 µg/mL.
In experiment [4], DKELRC [Peptide 1238 DKELR] showed an IC50 of less than 0.5 µg/mL.
In turn, DWEFRDAC [Peptide 1241 DWEFRDA] displayed a half-inhibitory concentration (IC50) in experiment [4] of less than 0.5 µg/mL.
Still for that read-out and setting: the value for EYEFRGC [Peptide 1239 EYEFRG] was greater than 0.5 µg/mL.
EAEFRGC [Peptide 3006 EAEFRG] yielded an IC50 in experiment [5] of less than 0.5 µg/mL.
In experiment [5], DWELRIC [Peptide 3002 DWELRI] gave an IC50 greater than 0.5 µg/mL.
In experiment [3], ELEFRGC [Peptide 3008 ELEFRG] registered an IC50 of less than 5 µg/mL.
Consider DRELRIC [Peptide 1235 DRELRI], for which, in experiment [4], the IC50 is less than 0.5 µg/mL.
Molecule DKELRIC [Peptide 3001 DKELRI] returned an IC50 in experiment [5] of less than 0.5 µg/mL.
